Changes are numbered by the printed parent chain.
Tests used:
[1] = target: T1, monovalent hVISTA-ECD (amino acids 32-193 of SEQ ID NO: 1 with a 7xHis tail) (human, UniProt Q9H7M9 33-193); assay: SPR 37C, Ab on Protein A, hVISTA-ECD 100-0.78 nM, pH 7.4
T1 construct: analyte of the SPR assays; also called huVISTA-His; human VISTA-ECD
Protocol: Human VISTA binding kinetics of P1-061029 (“ ‘029”), P1-068761 (“ ‘761”) and P1-068767 (“ ‘767”) (as IgG1.3 antibodies) were measured at pH values between pH 7.4 and pH 6.0, i.e., at pH 6.9 and pH 6.45 using a Biacore® T100 instrument (GE Healthcare). […] Antibodies were diluted to 25 nM in PBST pH 7.4, and were captured across active biosensor flow cells at 5 ul/min for 45 seconds. A concentration series of 100 - 0.78 nM monovalent hVISTA-ECD (SEQ ID NO: 325) was prepared pH 7.4, 6.9, 6.45 and 6.0 running buffers, and was injected over the captured antibodies at 40 ul/min to measure association and dissociation. Two 15 second injections of 10 mM glycine pH 1.5 were used to regenerate the Protein A capture surface between assay cycles. Rate constants ka (kₒₙ) and kd (koff) were derived from reference flow cell and 0 nM blank-subtracted sensorgrams, and were fit to a 1:1 binding model in Biacore® T200 Evaluation Software v.2.0. The affinity constant, KD was calculated as the ratio of rate constants koff/kₒₙ for each VISTA antibody. Ratios of koff and KD at each pH relative to pH 6.0 were calculated to evaluate how the VISTA koff and KD change as the buffer pH shifts to physiological, and are shown in Table 7. […] As the buffer pH shifts from acidic to physiological, VISTA koff and KD both weaken for ‘761 and ‘767. Physiological pH data for ‘761 and ‘767 for comparison is referenced from Table 7 and noted with an asterisk (*).

[2] = target: T1, monovalent hVISTA-ECD (amino acids …); assay: SPR, pH 7.4 over pH 6.0
Protocol: Further binding kinetic experiments were performed at various pHs on VISTA antibodies described herein by SPR as generally described in Example 9 above. Antibodies were normalized to 50 nM concentration in PBST pH 7.4 and captured on a Protein A CM5 chip (ID 4931) by injecting for 45 seconds at a 5 µL/min flow rate. An 8-point human VISTA titration ([…]) was prepared in PBST at pH 7.4, 6.9, 6.45, and 6.0. Titrations were injected over the captured antibodies for 180 seconds at 30 µL/min. Sensorgrams were fit to a 1:1 binding model in T200 evaluation software and the kinetic constants were reported.
Each table reports the data at one of the four tested pHs (7.4, 6.9, 6.45, and 6.0, respectively). The 8-point hVISTA titration used in these assays was chosen to provide increased confidence in kinetic values reported at neutral pH conditions. A relatively stringent cutoff for non-binding was applied in this assay. Certain progeny of P1-061029 antibody (P1-068757, ‘759, ‘765, ‘771, and ‘775) show no binding to hVISTA at micromolar concentrations at pH 7.4, while ‘761 and ‘767 show no binding to hVISTA at 100 nM at pH 7.4 but do show binding to hVISTA at micromolar concentrations.

[3] = target: T1, monovalent hVISTA-ECD (amino acids …); assay: SPR 37C, Ab on Protein A, hVISTA-ECD 50-5 nM, pH 6.0, average
Outline: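 Biacore T100 at 37C: antibodies (IgG1.3 format, 25 nM in PBST pH 7.4) captured on Protein A, then 50 - 5 nM monovalent hVISTA-ECD injected in pH 7.4 or 6.0 running buffer. Reference- and blank-subtracted sensorgrams fit to 1:1 model; KD = koff/kon.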

[4] = target: T1, monovalent hVISTA-ECD (amino acids …); assay: SPR 37C, Ab on Protein A, hVISTA-ECD 50-0.2 nM, column headed pH 7 (running buffer pH 7.4 in the text)
Protocol: Surface plasmon resonance (SPR) analysis was performed to measure the association rates (defined as ka or kₒₙ, 1/Ms units), dissociation rates (defined as kd or koff, s⁻¹ units) and affinity constants (defined as KD, M units) for VISTA Abs at acidic and physiological pHs using a Biacore® T200 instrument (GE Healthcare). […] Antibodies were diluted to 20 nM in PBST pH 7.4, and were captured across active biosensor flow cells at 5 ul/min for 50 seconds. A concentration series of 50 - 0.2 nM monovalent hVISTA-ECD (SEQ ID NO: 325) was prepared in pH 7.4 and 6.0 running buffers, and was injected over the captured antibodies at 40 ul/min to measure association and dissociation. Two 15 second injections of 10 mM glycine pH 1.5 were used to regenerate the Protein A capture surface between assay cycles. Rate constants kₐ (kₒₙ) and kd (kₒff) were derived from reference flow cell and 0 nM blank-subtracted sensorgrams, and were fit to a 1:1 binding model in Biacore® T200 Evaluation Software v.2.0.

[5] = target: T1, monovalent hVISTA-ECD (amino acids …); assay: SPR 37C, pH 7.4 *, value referenced from the 1600 nM assay (same as the 4th table r7)

T1 sequence (Q9H7M9 other isoform, or with tags, fused parts or gaps limits assumed): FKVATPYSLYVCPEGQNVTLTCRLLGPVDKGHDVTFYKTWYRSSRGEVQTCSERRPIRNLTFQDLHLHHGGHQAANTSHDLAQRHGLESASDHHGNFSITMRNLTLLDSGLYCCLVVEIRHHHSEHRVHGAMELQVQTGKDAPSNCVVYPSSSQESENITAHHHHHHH

B1: P1-061029.IgG1.3 (antibody)
heavy: EVQLVESGGGLVQPGKSLRLSCAASGFTLDDYAMHWVRQAPGKGLEWVSGINWNSANIGYADSVKGRFTISRDNAKNSLYLQMNSLRTEDTALYYCAKVPGYSGGWIDAFDVWGQGTMVTVSSASTKGPSVFPLAPSSKSTSGGTAALGCLVKDYFPEPVTVSWNSGALTSGVHTFPAVLQSSGLYSLSSVVTVPSSSLGTQTYICNVNHKPSNTKVDKRVEPKSCDKTHTCPPCPAPEAEGAPSVFLFPPKPKDTLMISRTPEVTCVVVDVSHEDPEVKFNWYVDGVEVHNAKTKPREEQYNSTYRVVSVLTVLHQDWLNGKEYKCKVSNKALPAPIEKTISKAKGQPREPQVYTLPPSREEMTKNQVSLTCLVKGFYPSDIAVEWESNGQPENNYKTTPPVLDSDGSFFLYSKLTVDKSRWQQGNVFSCSVMHEALHNHYTQKSLSLSPG
light: not shown
notes: IgG1.3; also called P1-061029 (parent); P1-061029-18
Kd [1]: 26 nM
koff [1]: 0.0064 s⁻¹
kon [1]: 250000 M⁻¹ s⁻¹
7.4 KD/ 6.0 KD [2]: 4.5
7.4 kd/ 6.0 kd [2]: 1.1
Kd [3]: 3.6 nM
koff [3]: 0.0058 s⁻¹
kon [3]: 1.6e+06 M⁻¹ s⁻¹
koff [4]: 0.0091 s⁻¹

B2: P1-068761.IgG1.3 (antibody)
heavy: B1 heavy with D30E, Y32E, A56E, N57E, G104H, F110E
light: not shown
notes: IgG1.3; also called P1-068761-20; P1-068761 hIgG1.3f
Kd [3]: 3.8 nM
koff [3]: 0.0014 s⁻¹
kon [3]: 380000 M⁻¹ s⁻¹
Kd [5]: 11000 nM
koff [5]: 0.042 s⁻¹
kon [5]: 3800 M⁻¹ s⁻¹

— US20230192860A1 (Bristol-Myers Squibb, published 2023)
